From US20200407708A1

Biological target: streptavidin (UniProt P22629)
Assay: gel shift with streptavidin

Chain of UniProt P22629 (P22629 37-163 limits assumed): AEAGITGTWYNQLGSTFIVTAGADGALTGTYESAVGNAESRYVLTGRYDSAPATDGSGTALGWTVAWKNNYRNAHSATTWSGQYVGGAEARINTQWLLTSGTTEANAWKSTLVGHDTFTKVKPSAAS

In the case of biotinylated SpyCatcher002 (S50C), the percent of protein biotinylated (shifted in the presence of streptavidin) is reported as 90%.
